# Measured values taken from patent US20180245061A1, “Modified Heterocyclase” (THE UNIVERSITY COURT OF THE UNIVERSITY OF ABERDEEN, priority 2014, published 2018).
# System: PatE′
# Test: Heterocyclization reaction with PatE′, MS analysis
# Type: biochemical
# Settings: PatE′ with 2 μM enzyme, 5 mM ATP, 5 mM MgCl2, 16 h at 37° C.; TABLE 1
# Method: For all heterocyclization reactions, […] PatE′ (and variants,) was incubated with 2 μM enzyme in 150 mM NaCl, 10 mM HEPES pH 7.4, 1 mM TCEP, 5 mM ATP and 5 mM MgCl2 for 16 h at 37° C. Samples were analyzed by ESI or MALDI MS (LCT, Micromass or 4800 MALDI TOF/TOF Analyzer, ABSciex). For cis trans activation studies, 100 μM ITACITFCAYDG synthetic test peptide (Peptide Protein Research Ltd) was reacted with 5 μM heterocyclase enzyme in the presence and absence of 5.5 μM LAELSEEAL synthetic peptide, or 5.5 μM full-length PatE′4 leader peptide. The reaction was carried out in 150 mM NaCl, 10 mM HEPES pH 7.4, 1 mM TCEP, 5 mM ATP and 5 mM MgCl2 for 16 h at 37° C. and analyzed as above. Synthetic peptides were purchased from Peptide Protein Research Ltd.
# Sequence of PatE′ (as listed by the source): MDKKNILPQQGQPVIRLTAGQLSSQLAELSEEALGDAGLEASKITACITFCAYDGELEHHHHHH
row,Molecule,No. of heterocycles (PatE′)
1,LynD K409E: LynD point mutant K409E (protein) MQSTPLLQIQPHFHVEVIEPKQVYLLGEQANHALTGQLYCQILPLLNGQYTLEQIVEKLDGEVPPEYIDYVLERLAEKGYLTEAAPELSSEVAAFWSELGIAPPVAAEALRQPVTLTPVGNISEVTVAALTTALRDIGISVQTPTEAGSPTALNVVLTDDYLQPELAKINKQALESQQTWLLVKPVGSVLWLGPVFVPGKTGCWDCLAHRLRGNREVEASVLRQKQAQQQRNGQSGSVIGCLPTARATLPSTLQTGLQFAATEIAKWIVKYHVNATAPGTVFFPTLDGKIITLNHSILDLKSHILIKRSQCPTCGDPKILQHRGFEPLKLESRPKQFTSDGGHRGTTPEQTVQKYQHLISPVTGVVTELVRITDPANPLVHTYRAGHSFGSATSLRGLRNTLKHKSSGEGKTDSQSKASGLCEAVERYSGIFQGDEPRKRATLAELGDLAIHPEQCLCFSDGQYANRETLNEQATVAHDWIPQRFDASQAIEWTPVWSLTEQTHKYLPTALCYYHYPLPPEHRFARGDSNGNAAGNTLEEAILQGFMELVERDGVALWWYNRLRRPAVDLGSFNEPYFVQLQQFYRENDRDLWVLDLTADLGIPAFAGVSNRKTGSSERLILGFGAHLDPTIAILRAVTEVNQIGLELDKVPDENLKSDATDWLITEKLADHPYLLPDTTQPLKTAQDYPKRWSDDIYTDVMTCVNIAQQAGLETLVIDQTRPDIGLNVVKVTVPGMRHFWSRFGEGRLYDVPVKLGWLDEPLTEAQMNPTPMPF,2
2,LynD K409A: LynD point mutant K409A (protein) MQSTPLLQIQPHFHVEVIEPKQVYLLGEQANHALTGQLYCQILPLLNGQYTLEQIVEKLDGEVPPEYIDYVLERLAEKGYLTEAAPELSSEVAAFWSELGIAPPVAAEALRQPVTLTPVGNISEVTVAALTTALRDIGISVQTPTEAGSPTALNVVLTDDYLQPELAKINKQALESQQTWLLVKPVGSVLWLGPVFVPGKTGCWDCLAHRLRGNREVEASVLRQKQAQQQRNGQSGSVIGCLPTARATLPSTLQTGLQFAATEIAKWIVKYHVNATAPGTVFFPTLDGKIITLNHSILDLKSHILIKRSQCPTCGDPKILQHRGFEPLKLESRPKQFTSDGGHRGTTPEQTVQKYQHLISPVTGVVTELVRITDPANPLVHTYRAGHSFGSATSLRGLRNTLKHKSSGAGKTDSQSKASGLCEAVERYSGIFQGDEPRKRATLAELGDLAIHPEQCLCFSDGQYANRETLNEQATVAHDWIPQRFDASQAIEWTPVWSLTEQTHKYLPTALCYYHYPLPPEHRFARGDSNGNAAGNTLEEAILQGFMELVERDGVALWWYNRLRRPAVDLGSFNEPYFVQLQQFYRENDRDLWVLDLTADLGIPAFAGVSNRKTGSSERLILGFGAHLDPTIAILRAVTEVNQIGLELDKVPDENLKSDATDWLITEKLADHPYLLPDTTQPLKTAQDYPKRWSDDIYTDVMTCVNIAQQAGLETLVIDQTRPDIGLNVVKVTVPGMRHFWSRFGEGRLYDVPVKLGWLDEPLTEAQMNPTPMPF,1
3,LynD E423R: LynD point mutant E423R (protein) MQSTPLLQIQPHFHVEVIEPKQVYLLGEQANHALTGQLYCQILPLLNGQYTLEQIVEKLDGEVPPEYIDYVLERLAEKGYLTEAAPELSSEVAAFWSELGIAPPVAAEALRQPVTLTPVGNISEVTVAALTTALRDIGISVQTPTEAGSPTALNVVLTDDYLQPELAKINKQALESQQTWLLVKPVGSVLWLGPVFVPGKTGCWDCLAHRLRGNREVEASVLRQKQAQQQRNGQSGSVIGCLPTARATLPSTLQTGLQFAATEIAKWIVKYHVNATAPGTVFFPTLDGKIITLNHSILDLKSHILIKRSQCPTCGDPKILQHRGFEPLKLESRPKQFTSDGGHRGTTPEQTVQKYQHLISPVTGVVTELVRITDPANPLVHTYRAGHSFGSATSLRGLRNTLKHKSSGKGKTDSQSKASGLCRAVERYSGIFQGDEPRKRATLAELGDLAIHPEQCLCFSDGQYANRETLNEQATVAHDWIPQRFDASQAIEWTPVWSLTEQTHKYLPTALCYYHYPLPPEHRFARGDSNGNAAGNTLEEAILQGFMELVERDGVALWWYNRLRRPAVDLGSFNEPYFVQLQQFYRENDRDLWVLDLTADLGIPAFAGVSNRKTGSSERLILGFGAHLDPTIAILRAVTEVNQIGLELDKVPDENLKSDATDWLITEKLADHPYLLPDTTQPLKTAQDYPKRWSDDIYTDVMTCVNIAQQAGLETLVIDQTRPDIGLNVVKVTVPGMRHFWSRFGEGRLYDVPVKLGWLDEPLTEAQMNPTPMPF,0
